# From patent publication US9320760B2, “Compositions and methods of use of compounds to increase cancer patient survival time” (BioNumerik Pharmaceuticals, Inc., priority 2008, dated 2016)
# Substrate: O=S(=O)(O)CCSSCCS(=O)(=O)O
# Assay: purified protein, by the assay type
# Settings: pH 7.0; 25.0 °C
protein,measurement,value
Thioredoxin Reductase + Thioredoxin (Bos taurus) (protein) MVKQIESKYAFQEALNSAGEKLVVVDFSATWCGPCKMIKPFFHSLSEKYSNVVFLEVDVDDCQDVAAECEVKCMPTFQFFKKGQKVGEFSGANKEKLEATINELI,Km,72 µM
